In patent US20230071371A1 (Scripps Research, published 2023):
Bridges are numbered along the chain shown (N, C = ends). Where no end group is shown, it is not given here. [ ]: non-standard residue; d: D form. hArg = N=C(N)NCCCC[C@H](N)C(=O)O; staple K20 = not defined here; staple K4 = not defined here; staple K5 = not defined here; staple K6 = not defined here; staple K7 = not defined here; staple K8 = not defined here; staple K9 = not defined here; Nle = CCCC[C@H](N)C(=O)O; L6 = not defined here; L7 = not defined here; L8 = not defined here; Aib = CC(C)(N)C(=O)O

Assays:
Experiment in all cases: cell-based or functional assay
human GIPR = target: T1, human GIPR (human, UniProt P48546 22-466)
T1 sequence (looked up): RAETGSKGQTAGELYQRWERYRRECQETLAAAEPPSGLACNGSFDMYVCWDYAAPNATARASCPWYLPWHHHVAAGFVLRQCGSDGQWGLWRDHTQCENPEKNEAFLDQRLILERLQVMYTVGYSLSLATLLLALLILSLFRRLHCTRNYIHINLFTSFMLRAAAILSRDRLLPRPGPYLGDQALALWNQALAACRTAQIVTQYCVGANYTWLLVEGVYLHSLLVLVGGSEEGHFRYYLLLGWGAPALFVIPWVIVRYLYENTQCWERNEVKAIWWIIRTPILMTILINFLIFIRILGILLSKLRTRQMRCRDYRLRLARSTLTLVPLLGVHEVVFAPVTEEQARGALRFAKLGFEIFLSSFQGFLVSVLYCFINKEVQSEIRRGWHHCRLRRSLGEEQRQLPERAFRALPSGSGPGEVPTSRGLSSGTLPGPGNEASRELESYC

human GLP-1R = human GLP-1R (human, UniProt P43220 24-463)
human NPFF2R = human NPFF2R (human, UniProt Q9Y5X5 1-522)
GPR10 = target: T2, GPR10 (UniProt P49683 1-370, limits assumed)
T2 sequence (looked up): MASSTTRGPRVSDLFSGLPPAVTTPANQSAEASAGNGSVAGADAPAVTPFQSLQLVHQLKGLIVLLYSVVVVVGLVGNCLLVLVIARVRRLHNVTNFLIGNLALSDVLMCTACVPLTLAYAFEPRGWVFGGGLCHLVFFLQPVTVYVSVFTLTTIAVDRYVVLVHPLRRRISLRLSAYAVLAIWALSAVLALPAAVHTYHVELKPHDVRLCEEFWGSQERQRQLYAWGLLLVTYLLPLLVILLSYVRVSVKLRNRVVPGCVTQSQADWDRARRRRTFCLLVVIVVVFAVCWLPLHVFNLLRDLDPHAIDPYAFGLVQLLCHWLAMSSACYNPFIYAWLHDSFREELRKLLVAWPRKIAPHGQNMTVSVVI

Sequence of human NPFF2R (Q9Y5X5 whole entry): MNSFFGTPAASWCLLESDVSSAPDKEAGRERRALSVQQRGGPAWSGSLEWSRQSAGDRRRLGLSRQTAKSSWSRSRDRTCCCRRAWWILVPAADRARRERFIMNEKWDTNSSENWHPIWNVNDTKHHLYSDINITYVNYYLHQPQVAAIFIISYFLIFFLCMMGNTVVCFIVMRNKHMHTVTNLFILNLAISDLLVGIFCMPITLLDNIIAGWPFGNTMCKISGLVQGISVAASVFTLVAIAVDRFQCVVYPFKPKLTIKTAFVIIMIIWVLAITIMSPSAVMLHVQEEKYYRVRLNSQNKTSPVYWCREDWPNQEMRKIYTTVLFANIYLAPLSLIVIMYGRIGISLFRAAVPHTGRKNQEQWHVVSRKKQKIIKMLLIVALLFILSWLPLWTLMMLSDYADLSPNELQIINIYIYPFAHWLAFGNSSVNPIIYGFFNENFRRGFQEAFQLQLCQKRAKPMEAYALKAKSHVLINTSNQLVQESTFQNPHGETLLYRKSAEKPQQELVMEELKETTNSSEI

Binder | EC50 cAMP 0% FBS (human GIPR) [nM] | EC50 cAMP 0% FBS (human GLP-1R) [nM] | NPFF2R EC50 0% FBS (human NPFF2R) [nM] | NPFF2R EC50 10% FBS (human NPFF2R) [nM] | GPR10 EC50 0% FBS (GPR10) [nM] | GPR10 EC50 10% FBS (GPR10) [nM]
Y[Aib]EGTFTSDYSIYLDKKAA[Aib]EFVKWLLAGGPSSGAPPPS (linker 17-24 via staple K7; reading uncertain) [Conjugate 150] | 0.02 | 0.06 |  |  |  | 
Y[Aib]EGTFTSDYSIYKDKQAA[Aib]KFVNWLLAGGPSSGAPPPS (linker 14-21 via staple K6; reading uncertain) [Conjugate 151] | 0.02 | 0.03 |  |  |  | 
Y[Aib]EGTFTSDYSIYKDKQAA[Aib]KFVNWLLAGGPSSGAPPPS (linker 14-21 via staple K7; reading uncertain) [Conjugate 154] | 0.02 | 0.03 |  |  |  | 
Y[Aib]EGTFTSDYSIYKDKQAA[Aib]KFVNWLLAGGPSSGAPPPS (linker 14-21 via staple K20; reading uncertain) [Conjugate 153] | 0.01 | 0.05 |  |  |  | 
Y[Aib]EGTFTSDYSIYLDKKAA[Aib]EFVKWLLAGGPSSGAPPPS (linker 17-24 via staple K6; reading uncertain) [Conjugate 147] | 0.02 | 0.07 |  |  |  | 
Y[Aib]EGTFTSDYSIYLDKKAQ[Aib]AFVKWLIAQGPSSGAPPPS (linker 17-24 via staple K9; reading uncertain) [Conjugate 164] | 68.3 | 0.14 |  |  |  | 
Y[Aib]EGTFTSDYSIYKDKQAA[Aib]KFKNWLKAGGPSSGAPPPS (linker 23-27 via staple K6; reading uncertain) [Conjugate 155] | 1.66 | 4.08 |  |  |  | 
Y[Aib]EGTFTSDYSIYLDKKAA[Aib]EFVKWLLAGGPSSGAPPPS (linker 17-24 via staple K8; reading uncertain) [Conjugate 148] | 0.03 | 0.46 |  |  |  | 
Y[Aib]EGTFTSDYSIYLDKKAA[Aib]EFVKWLLAGGPSSGAPPPS (linker 17-24 via staple K9; reading uncertain) [Conjugate 143] | 0.002 | 0.068 |  |  |  | 
Y[Aib]EGTFTSDYSIYLDKKAA[Aib]EFVKWLLAGGPSSGAPPPS (linker 17-24 via staple K20; reading uncertain) [Conjugate 149] | 0.01 | 0.05 |  |  |  | 
Y[Aib]EGTFTSDYSIYKDKQAA[Aib]KFVNWLLAGGPSSGAPPPS (linker 14-21 via staple K8; not fully specified; reading uncertain) [Conjugate 152] | 0.05 |  |  |  |  | 
SRAHQCS[Nle]ETRTCDINPAWYTG[hArg]GIRPVGRF-NH2 (linker 6-13 via L8; reading uncertain) [Conjugate 267] |  |  | 560 | ~10000 | 24 | 830
YXEGTFTSDYSIYLDKKAAXEFVKWLLAGGPSSGAPPPS (staple K5 on Lys 17, 24; Aib 2, 20) [Conjugate 139] | 0.0026 | 0.061 |  |  |  | 
YXEGTFTSDYSIYLDKKAAXEFVKWLLAGGPSSGAPPPS (staple K4 on Lys 17, 24; Aib 2, 20) [Conjugate 140] | 0.0028 | 0.034 |  |  |  | 
Y[Aib]EGTFTSDYSIYLDKKAQ[Aib]AFVKWLIAQGPSSGAPPPS (linker 17-24 via staple K4; reading uncertain) [Conjugate 146] | 0.03 | 0.11 |  |  |  | 
Y[Aib]EGTFTSDYSIYKDKQAA[Aib]KFKNWLKAGGPSSGAPPPS (linker 23-27 via staple K9; reading uncertain) [Conjugate 159] | 0.0312 | 1180 |  |  |  | 
Y[Aib]EGTFTSDYSIYKDKQAA[Aib]KFKNWLKAGGPSSGAPPPS (linker 23-27 via staple K8; reading uncertain) [Conjugate 156] | 2.82 | 14.6 |  |  |  | 
SRAHQCS[Nle]ETRTCDINPAWYTG[hArg]GIRPVGRF-NH2 (linker 6-13 via L7; reading uncertain) [Conjugate 271] |  |  | 130 | 140 | 9 | 39
Y[Aib]EGTFTSDYSIYLDKKAQ[Aib]AFVKWLIAQGPSSGAPPPS (linker 17-24 via staple K20; reading uncertain) [Conjugate 162] | 0.02 | 0.05 |  |  |  | 
Y[Aib]EGTFTSDYSIYKDKQAA[Aib]KFKNWLKAGGPSSGAPPPS (linker 23-27 via staple K5; reading uncertain) [Conjugate 158] | 30.5 | 98.3 |  |  |  | 
SRAHQCS[Nle]ETRTCDINPAWYTG[hArg]GIRPVGRF-NH2 (linker 6-13 via L6; reading uncertain) [Conjugate 270] |  |  | 270 | 310 | 12 | 42
Y[Aib]EGTFTSDYSIYLDKKAQ[Aib]AFVKWLIAQGPSSGAPPPS (linker 17-24 via staple K5; reading uncertain) [Conjugate 163] | 0.05 | 0.24 |  |  |  | 
Y[Aib]EGTFTSDYSIYLDKKAQ[Aib]AFVKWLIAQGPSSGAPPPS (linker 17-24 via staple K8; reading uncertain) [Conjugate 161] | 0.01 | 0.4 |  |  |  | 
Y[Aib]EGTFTSDYSIYKDKQAA[Aib]KFVNWLLAGGPSSGAPPPS (linker 14-21 via staple K9; reading uncertain) [Conjugate 144] | 0.0022 | 0.012 |  |  |  | 
Y[Aib]EGTFTSDYSIYLDKKAQ[Aib]AFVKWLIAQGPSSGAPPPS (linker 17-24 via staple K6; reading uncertain) [Conjugate 160] | 7.3 | 0.03 |  |  |  | 
